Our source for the other: percent decrease vs wild type values is paper PMC4322367.

For experiment [1], the target named is Plk1 (UniProt P53350). The experiment in a line: GST pull-down of His-Plk1. As to conditions: reference: wild type; sites S12.
For experiment [2], the target named is Plk1 (UniProt P53350). The experiment is described as follows: co-IP of FLAG-Ataxin-10 and HA-Plk1. The note with it: reference: wild type; sites S12.

Consider Ataxin-10 (from UniProt Q9UBB4) S12A, for which the other: percent decrease vs wild type in experiment [1] came to 20%; in experiment [2], 30%.
